{"source": "paper PMC6901440", "about": "“Bcl-2 regulates pyroptosis and necroptosis by targeting BH3-like domains in GSDMD and MLKL” (Cell Death Discovery, 2019)", "target": "T1, Bcl-2 (endogenous, THP-1 cells) (human (endogenous in THP-1), UniProt P10415 1-239)", "T1 construct": "Bcl-2 (B-cell lymphoma 2), endogenous in the human macrophage cell line THP-1; immunoprecipitated with anti-Bcl-2 antibody; also called B-cell lymphoma 2; source: endogenous, THP-1 lysate", "T1 sequence (P10415 whole entry)": "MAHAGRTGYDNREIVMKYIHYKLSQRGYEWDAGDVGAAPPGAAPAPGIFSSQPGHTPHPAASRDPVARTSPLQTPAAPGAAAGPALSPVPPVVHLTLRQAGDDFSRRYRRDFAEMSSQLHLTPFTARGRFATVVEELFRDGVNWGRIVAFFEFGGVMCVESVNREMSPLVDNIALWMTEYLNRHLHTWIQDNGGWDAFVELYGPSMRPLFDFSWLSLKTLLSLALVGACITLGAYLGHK", "assay": "co-IP; endogenous proteins; Bcl-2 immunoprecipitated from THP-1 lysates; cells basal or LPS 50 ng/ml 5 h + nigericin 5 uM 30 min (Fig. 1b); PMA treated cells with or without TNFa 20 ng/ml, 100 nM Smac mimetic, 20 uM z-VAD-FMK for 3 h (Fig. 5d); lysis buffer 20 mM HEPES pH 7.4, 0.5% Triton X-100, 0.5% CHAPS, 10% glycerol; washed eight times", "details": "partners not purified"}
{"binder": "gasdermin D (endogenous, THP-1 cells) (natural protein, human (endogenous in THP-1), UniProt P57764 1-484, looked up, gasdermin D (GSDMD), endogenous in the human macrophage cell line THP-1; also called GSDMD; source: endogenous, THP-1 lysate) MGSAFERVVRRVVQELDHGGEFIPVTSLQSSTGFQPYCLVVRKPSSSWFWKPRYKCVNLSIKDILEPDAAEPDVQRGRSFHFYDAMDGQIQGSVELAAPGQAKIAGGAAVSDSSSTSMNVYSLSVDPNTWQTLLHERHLRQPEHKVLQQLRSRGDNVYVVTEVLQTQKEVEVTRTHKREGSGRFSLPGATCLQGEGQGHLSQKKTVTIPSGSTLAFRVAQLVIDSDLDVLLFPDKKQRTFQPPATGHKRSTSEGAWPQLPSGLSMMRCLHNFLTDGVPAEGAFTEDFQGLRAEVETISKELELLDRELCQLLLEGLEGVLRDQLALRALEEALEQGQSLGPVEPLDGPAGAVLECLVLSSGMLVPELAIPVVYLLGALTMLSETQHKLLAEALESQTLLGPLELVGSLLEQSAPWQERSTMSLPPGLLGNSWGEGAPAWVLLDECGLELGEDTPHVCWEPQAQGRMCALYASLALLSGLSQEPH", "values": [{"measurement": "fold change of GSDMD associated with Bcl-2 after LPS and nigericin against basal conditions", "result": 2.4, "unit": "fold"}]}
